For 1 molecule, Kd results are on record in publication PMC6035297 (2018).

Square brackets hold non-standard residues; d marks the D form. Ends that are not written are not given here. pY = N[C@@H](Cc1ccc(OP(=O)(O)O)cc1)C(=O)O A value given as a limit tells only on which side of the number the result lay.

This test has as its target T1, CTpY phosphopeptide (PLCγ1 pTyr783) 779-790 (Homo sapiens, UniProt P19174).
T1 chain: NPGF[pY]VEANPMP
Description: NMR titration.

B1: PLCγ1 tandem SH2 (NSH2CSH2ΔCT) nSH2-cSH2 545-770 (protein)
chain: HSNEKWFHGKLGAGRDGRHIAERLLTEYCIETGAPDGSFLVRESETFVGDYTLSFWRNGKVQHCRIHSRQDAGTPKFFLTDNLVFDSLYDLITHYQQVPLRCNEFEMRLSEPVPQTNAHESKEWYHASLTRAQAEHMLMRVPRDGAFLVRKRNEPNSYAISFRAEGKIKHCRVQQEGQTVMLGNSEFDSLVDLISYYEKHPLYRKMKLRYPINEEALEKIGTAEPD
What is called Kd is a measure of binding affinity in units of concentration. Low values mean tighter binding, high ones weaker binding. With B1, the Kd was less than 15 µM.
